Measurements taken from publication PMC8047137, “Smyd1 Orchestrates Early Heart Development Through Positive and Negative Gene Regulation” (Frontiers in Cell and Developmental Biology, 2021).

Target: V5-tagged ASH2L (absent small homeotic-2-like protein) (mouse, UniProt Q91X20 1-623)
Experiment: cell-based or functional assay

Sequence of V5-tagged ASH2L (absent small homeotic-2-like protein) (Q91X20 whole entry): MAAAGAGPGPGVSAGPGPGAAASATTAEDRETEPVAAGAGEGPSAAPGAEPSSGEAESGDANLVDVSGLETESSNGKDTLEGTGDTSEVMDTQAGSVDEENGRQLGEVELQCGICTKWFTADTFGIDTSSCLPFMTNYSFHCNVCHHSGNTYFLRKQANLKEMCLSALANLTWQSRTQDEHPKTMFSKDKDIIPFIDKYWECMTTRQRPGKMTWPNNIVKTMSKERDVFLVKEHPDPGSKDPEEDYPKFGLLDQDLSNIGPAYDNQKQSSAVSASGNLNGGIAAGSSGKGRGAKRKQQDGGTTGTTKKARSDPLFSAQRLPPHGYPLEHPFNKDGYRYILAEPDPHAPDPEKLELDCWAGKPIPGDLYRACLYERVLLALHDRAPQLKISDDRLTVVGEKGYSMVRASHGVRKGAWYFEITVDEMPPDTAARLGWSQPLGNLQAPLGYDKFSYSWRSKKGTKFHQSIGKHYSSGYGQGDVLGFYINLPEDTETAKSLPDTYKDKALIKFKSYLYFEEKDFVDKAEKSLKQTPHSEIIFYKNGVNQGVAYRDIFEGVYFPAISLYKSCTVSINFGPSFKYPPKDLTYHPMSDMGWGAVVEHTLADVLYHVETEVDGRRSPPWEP

B1: Myc-tagged Smyd1 (SET and MYND domain-containing protein 1) (natural protein, mouse, UniProt P97443 1-490, looked up)
chain: MTIGSMENVEVFTSEGKGRGLKATKEFWAADVIFAERAYSAVVFDSLINFVCHTCFKRQEKLHRCGQCKFAHYCDRTCQKDAWLNHKNECAAIKKYGKVPNENIRLAARIMWRVEREGTGLTEGCLVSVDDLQNHVEHFGEEEQKELRVDVDTFLQYWPPQSQQFSMQYISHIFGVINCNGFTLSDQRGLQAVGVGIFPNLGLVNHDCWPNCTVIFNNGNHEAVKSMFHTQMRIELRALGKISEGEELTVSYIDFLHLSEERRRQLKKQYYFDCSCEHCQKGLKDDLFLAAKEDPKPSQEVVKEMIQFSKDTLEKIDKARSEGLYHEVVKLCRECLEKQEPVFADTNLYVLRLLSIASEVLSYLQAYEEASHYARRMVDGYMKLYHHNNAQLGMAVMRAGLTNWHAGHIEVGHGMICKAYAILLVTHGPSHPITKDLEAMRMQTEMELRMFRQNEFMYHKMREAALNNQPMQVMAEPSNEPAPALFHKKQ
  Isl1 promoter (pLG3-Isl1-WT) luciferase reporter activity in C2C12 cells, ASH2L overexpressed with Smyd1: 25 fold above basal level
